Like-named read-outs stand apart in the source and are kept apart here.
T1: human TIGIT-AviFlag-biotin (human, UniProt Q495A1 22-141, biotin)
T1 sequence: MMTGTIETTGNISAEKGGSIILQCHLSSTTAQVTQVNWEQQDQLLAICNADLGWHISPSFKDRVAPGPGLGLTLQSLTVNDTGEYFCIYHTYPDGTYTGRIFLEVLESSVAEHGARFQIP

T2: mouse TIGIT-His (mouse, UniProt P86176 29-148, limits assumed)
T2 sequence (looked up): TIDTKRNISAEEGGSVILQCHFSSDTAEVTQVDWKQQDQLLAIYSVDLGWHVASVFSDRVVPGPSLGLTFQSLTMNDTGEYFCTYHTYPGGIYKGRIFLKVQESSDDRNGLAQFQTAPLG

T3: human TIGIT protein (human, UniProt Q495A1 22-141, limits assumed)
T3 construct: Recombinant protein (Genentech) used in ELISA screening and as SPR analyte; also called TIGIT antigen
T3 sequence: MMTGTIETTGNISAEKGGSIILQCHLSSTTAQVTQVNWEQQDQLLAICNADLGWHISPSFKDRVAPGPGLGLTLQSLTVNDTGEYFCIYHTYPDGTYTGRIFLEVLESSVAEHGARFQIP

T4: full-length human TIGIT on CHO cells (human, UniProt Q495A1 22-244)
T4 construct: also called CHO-hTIGIT; hu TIGIT
T4 sequence: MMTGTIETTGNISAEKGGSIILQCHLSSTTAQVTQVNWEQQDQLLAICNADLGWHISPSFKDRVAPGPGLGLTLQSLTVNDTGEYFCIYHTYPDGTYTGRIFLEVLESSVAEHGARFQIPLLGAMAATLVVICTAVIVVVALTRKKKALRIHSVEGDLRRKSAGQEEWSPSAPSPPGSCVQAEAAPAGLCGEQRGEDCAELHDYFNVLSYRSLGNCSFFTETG

T5: human TIGIT on activated human primary T cells (human, UniProt Q495A1 22-244)
T5 construct: also called Human T cell
T5 sequence: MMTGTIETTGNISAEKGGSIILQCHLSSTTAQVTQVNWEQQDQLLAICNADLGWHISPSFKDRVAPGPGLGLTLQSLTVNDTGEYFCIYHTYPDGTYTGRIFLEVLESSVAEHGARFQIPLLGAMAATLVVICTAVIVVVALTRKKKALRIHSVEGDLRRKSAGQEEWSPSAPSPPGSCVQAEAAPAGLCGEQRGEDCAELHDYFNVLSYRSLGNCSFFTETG


Assays:
[1] = biological target: T6, cynomolgus TIGIT-AviFlag-biotin (cynomolgus monkey, UniProt A0A7N9I9V4 89-209, biotin); assay: Block ELISA Cyno PVR-Fc:Bio-TIGIT-AviFlag (blocked ligand cyno PVR-Fc)
T6 construct: also called cyno TIGIT-AviFlag-biotin
Procedure: (§1) To test for the ability of the clones to block the TIGIT-PVR interaction, a blocking ELISA assay was used. Briefly, recombinant human PVR-Fc fusion protein, cynomolgus monkey PVR-Fc fusion protein, or mouse PVR-Fc fusion protein was coated at 4 μg/ml at 25 μl/well in phosphate-buffered saline (PBS, pH 7.0) onto 384-well Maxisorp microtiter plates (NUNC, Denmark) and incubated overnight at 4° C. The coating solution was then discarded and the plate was blocked using 0.5% bovine serum albumin (BSA) in PBS at 80 μl/well and incubated with gentle agitation for 1 hour. Titration curves of anti-TIGIT and Fab isotype control antibodies were diluted in assay buffer (PBS, 0.5% BSA, 0.05% Tween 20) using 12 serial 2.5-fold dilutions (40000-1.7 ng/mL). […] The plate was then washed 6× with wash buffer and bound human TIGIT-AviFlag-biotin, cyno TIGIT-AviFlag-biotin, or mouse TIGIT-His was detected by adding 25 μl/well of horseradish peroxidase-conjugated streptavidin (1:10000, Amersham, UK) or horseradish peroxidase-conjugated mouse anti-His (1:2500, Qiagen, Germany) diluted in assay buffer. […] Absorbance was read at 450 nm on a […] ASCENT® microtiter plate reader (Thermo Labsystems, Helsinki, Finland). Fit curves were plotted from the resulting optical density values from the ELISA plates and IC50s were calculated using Genedata Screener software (Genedata, Switzerland).

[2] = biological target: T1, human TIGIT-AviFlag-biotin; assay: Block ELISA Human PVR-Fc:Bio-TIGIT-AviFlag (blocked ligand human PVR-Fc)
Procedure: as §1

[3] = biological target: T2, mouse TIGIT-His; assay: Block ELISA Mouse PVR-Fc:TIGIT-His (blocked ligand mouse PVR-Fc)
Procedure: as §1

[4] = biological target: T7, cynomolgus monkey (cyno) TIGIT protein (cynomolgus monkey, UniProt A0A7N9I9V4 89-209); assay: SPR, bivalent affinity
[5] = biological target: T3, human TIGIT protein; assay: SPR, bivalent affinity
[6] = biological target: T4, full-length human TIGIT on CHO cells; assay: FACS on CHO cells expressing human TIGIT, FITC anti-hIgG detection
Procedure: (§2) Additional in vitro binding studies of the OMT- and SD-derived anti-TIGIT antibody clones were conducted. The OMT- and SD-derived anti-TIGIT clones were tested for binding to human and cyno TIGIT expressed on the surface of CHO cells by FACS analysis. CHO cells were transfected with full-length human TIGIT (CHO-hTIGIT) or cynomologous TIGIT (CHO-cyTIGIT). The TIGIT-expressing CHO cells were incubated with each anti-TIGIT antibody at the indicated concentrations and then detected via a FITC-labeled anti-hIgG antibody (see FIG. 1A) using standard methods. The results, shown in Table 6 and FIGS. 1B-1E, corroborate the results from the BIACORE™ analysis, described above.

[7] = biological target: T8, cynomolgus TIGIT on CHO cells (cynomolgus monkey, UniProt A0A7N9I9V4 89-312); assay: FACS blocking assay: labelled PVR-Fc (blocked ligand) on CHO cells expressing cyno TIGIT
T8 construct: whole, on cells; also called CHO-cyTIGIT; cyTIGIT
Procedure: (§3) These studies were further validated in CHO-TIGIT PVR blocking experiments in which TIGIT-expressing CHO cells were incubated with labeled PVR-Fc fusion protein in the presence of anti-TIGIT antibody or an human IgG1 control (FIG. 4A).

[8] = biological target: T5, human TIGIT on activated human primary …; assay: FACS on activated human PBMC, CD4 T cells, FITC anti-hIgG detection
Procedure: The OMT- and SD-derived anti-TIGIT clones were also tested for binding to human primary T cells by FACS analysis. Human PBMC were activated for with plate-bound anti-CD3 (5 μg/ml) and soluble anti-CD28 (2 μg/ml) for 2 days as described in Yu et al. Nature Immunology. 10: 48-57, 2009, which is incorporated herein by reference in its entirety. Cells were then washed and incubated with incubated with each anti-TIGIT antibody at the indicated concentrations and then detected via a FITC-labeled anti-hIgG antibody. Cells were also stained with anti-CD4, anti-CD8, and anti-CD25 (BD bioscience). Human CD4+(CD25+CD4+) and human CD8+(CD25+CD8+) T cells were assessed for binding by the anti-TIGIT clones by FACS. All samples were acquired on LSR-II or LSR-Fortessa instruments (BD Biosciences) and analyzed using FlowJo software (Treestar).

[9] = biological target: T7, cynomolgus monkey (cyno) TIGIT protein; assay: SPR, captured mAb
[10] = biological target: T3, human TIGIT protein; assay: SPR, captured mAb
[11] = biological target: T7, cynomolgus monkey (cyno) TIGIT protein; assay: SPR, monovalent affinity
[12] = biological target: T3, human TIGIT protein; assay: SPR, monovalent affinity
[13] = biological target: T8, cynomolgus TIGIT on CHO cells; assay: FACS on CHO cells expressing cyno TIGIT, FITC anti-hIgG detection
Procedure: as §2

[14] = biological target: T4, full-length human TIGIT on CHO cells; assay: FACS blocking assay: labelled PVR-Fc (blocked ligand) on CHO cells expressing human TIGIT
Procedure: as §3

[15] = biological target: T7, cynomolgus monkey (cyno) TIGIT protein; assay: SPR, captured mAb; remark: listed apart in the source
From the text: (§4) To prevent unwanted pyroglutamate formation for clones 4.1A4, 4.1 D3, and 7.4A3 (also referred to as 1A4, 1 D3, and 4A3, respectively) and to resolve the issue of unpaired cysteine residues for clones 4.1A4 and 7.4A3, the following optimized anti-TIGIT antibody variants were generated: 4.1A4.C96S.Q1E, 4.1A4.C96Y.Q1E, 4.1 D3.Q1E, 7.4A3.C96S.Q1E, and 7.4A3.C96Y.Q1E (also referred to as 1A4.C96S.Q1E, 1A4.C96Y.Q1E, 1 D3.Q1E, 4A3.C96S.Q1E, and 4A3.C96Y.Q1E, respectively). As described below in Table 2, the affinities of these five optimized variants for human and cynomolgus monkey (cyno) TIGIT were then determined by Surface Plasmon Resonance (SRP) (BIACORE™ analysis) and compared to that of their respective parental clones.
(§5) Briefly, a series S CM5 biosensor chip was activated with N-ethyl-N′-(3-dimethylaminopropyl)-carbodiimide hydrochloride (EDC) and N-hydroxysuccinimide (NHS) reagents according to the supplier's (GE Healthcare Biosciences, Piscataway, N.J.) instructions, and a human antibody capture kit was applied to couple goat anti-human Fc IgGs in order to achieve approximately 10,000 response units (RU) on each flow cell, followed by blocking un-reacted groups with 1M ethanolamine.
(§6) (flow rate: 30 μl/min) with no regeneration between injections. The sensorgrams were recorded and evaluated by BIAcore™ T200 Evaluation Software (version 2.0) after subtraction of reference cell signal. Association rates (kₒₙ) and dissociation rates (koff) were calculated using a simple one-to-one Langmuir binding model. The equilibrium dissociation constant (KD) was calculated as the ratio koff/kₒₙ.

[16] = biological target: T3, human TIGIT protein; assay: SPR, captured mAb; remark: listed apart in the source
From the text: as §4, §5, §6

T7 sequence (A0A7N9I9V4 entry or part of it): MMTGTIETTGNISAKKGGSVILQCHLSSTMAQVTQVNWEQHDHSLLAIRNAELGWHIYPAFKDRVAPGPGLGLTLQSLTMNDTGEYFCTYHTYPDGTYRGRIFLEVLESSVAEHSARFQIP
T8 sequence (A0A7N9I9V4 entry or part of it): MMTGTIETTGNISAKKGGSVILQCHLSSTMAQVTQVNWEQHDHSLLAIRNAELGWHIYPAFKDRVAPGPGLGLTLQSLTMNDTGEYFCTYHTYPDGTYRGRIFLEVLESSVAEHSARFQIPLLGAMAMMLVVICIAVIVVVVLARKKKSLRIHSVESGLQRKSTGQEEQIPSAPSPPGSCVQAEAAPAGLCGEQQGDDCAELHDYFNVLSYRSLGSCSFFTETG

Row | Kd [4] [nM] | Kd [5] [nM] | EC50 (read off the curve) [6] [nM] | IC50 (read off the curve) [7] [nM] | EC50 (read off the curve) [8] [nM] | Kd [9] [nM] | koff [9] [s⁻¹] | kon [9] [M⁻¹ s⁻¹] | Kd [10] [nM] | koff [10] [s⁻¹] | kon [10] [M⁻¹ s⁻¹] | Kd [11] [nM] | Kd [12] [nM] | EC50 (read off the curve) [13] [nM] | IC50 (read off the curve) [14] [nM] | Binder | also measured
1 | – | – | – | – | – | – | – | – | – | – | – | – | – | – | – | 4.1D3.Q1E Fab (Fab, V domains shown, also called 4.1 D3.Q1E in Fab format) VH: EVQLQQSGPGLVKPSQTLSLTCAISGDSVSSNSAAWNWIRQSPSRGLEWLGKTYYRFKWYSDYAVSVKGRITINPDTSKNQFSLQLNSVTPEDTAVFYCTRESTTYDLLAGPFDYWGQGTLVTVSS VL: not shown | IC50 [1]: 1.5 nM; IC50 [2]: 6.9 nM; IC50 [3]: > 133 nM
2 | 0.013 | ≤ 0.003 | ~0.2 | ~0.09 | ~0.09 | 0.41 | 0.000281 | 678000 | 0.09 | 8.4e-05 | 905000 | 0.41 | 0.093 | ~0.2 | – | rat10A5 (antibody, V domains shown, SD rat-derived; rat V domains as FR/HVR pieces; also called 1.10A5; Chimeric 1.10A5) VH: QVSLKESGPGILQPSHTLSLTCSFSGFSLTTYGMGVSWIRQPSEKGLEWLASIWWNGNTYYNPSLRSRLTVSKDTSNDQAFLNVTSVDTTDTATYYCAHTGGAVITWFAYWGQGTLVTVSS VL: NIVMTQSPKSMSISIGDRVTMNCKASQSVGKNIAWYQQKTGQSPQLLIYYASNRYTGVPDRFTGGGSGTDFTLTINSVQAEDAAFFYCQHIYNSPYPFGTGTKLEIK | –
3 | ≤ 0.013 | ≤ 0.007 | ~0.3 | ~0.3 | – | 0.25 | 9.6e-05 | 381000 | 0.03 | 1.8e-05 | 522000 | 0.25 | 0.034 | ~0.4 | ~0.4 | rat15C8 (antibody, V domains shown, SD rat-derived; rat V domains as FR/HVR pieces; also called 1.15C8; Chimeric 1.15C8) VH: EVQLQQSGPELQRPGASVKLSCKASGYTFTEHSIYWLKQRPKQSLEIIGRIDPKNGRTYFVDKFKNRATLTTNTSSNTAYMQLSSLTSEDTAIYFCARIDGFYFDFWGQGVMVTASS VL: NIHLTQSPSLLSASVGDRVTLSCKGSQNVNKYLVWYQQKLGEAPKLLIYSTDNLQSGIPSRFSGSGSGTDYTLTISSLQPEDAATYFCYQYNNGFTFGSGTKLEIK | –
4 | 0.035 | 0.31 | ~1 | – | ~0.5 | – | – | – | – | – | – | 2.6 | 4.9 | ~0.8 | ~0.2 | 4.1A4 (antibody, V domains shown, OMT rat-derived human antibody; also called 4.1A4.Q1.C96) VH: QVQLVQSGSELKKPGASVKVSCKASGYTLTNYPMNWVRQAPGRGLEWMGWINTNTGSPAYAQDFTERFVFSLDTSVTTAYLQISSLKAEDTAVYYCARTAITSVYHFDYWGQGTLVTVSS VL: DIQLTQSPSFLSASVGDRVTITCRASQGISSYLAWYQQKPGKAPRVLIYGATTLQSGVPSRFSGSESGTEFTLTISSLQPEDLATYYCQKLNSHPCSFGQGTKVEIK | Kd [15]: 2.42 nM; koff [15]: 0.000643 s⁻¹; kon [15]: 266000 M⁻¹ s⁻¹; Kd [16]: 3.57 nM; koff [16]: 0.00122 s⁻¹; kon [16]: 342000 M⁻¹ s⁻¹
